In patent publication US20230390337A1:

Target: high-affinity non-cleavable CD16 (hnCD16) Fc receptor
Experiment: cell-based or functional assay

Rituximab (antibody)
% specific cytotoxicity at E:T=1:1 (ADCC against CD19 negative leukemia cells) (% specific cytotoxicity): 75.6
